Consider 2 molecules from article PMC11596305, “A strategy to design protein-based antagonists against type I cytokine receptors” (PLOS Biology, 2024).

Assay in all cases: SPR; steady-state fitting of TPOR binding; further details in S1 Methods (not shown)
Settings in all cases: both partners purified
(In SPR one partner is held on a chip, and binding of the other changes the refractive index at the surface.)

One test addresses buto_a3.
Another test deals with buto_a3_t2.
Test [1] has as its target Thrombopoietin receptor (TPOR) (UniProt P40238 26-635).

B1: Thrombopoietin receptor (TPOR) (receptor)
chain: QDVSLLASDSEPLKCFSRTFEDLTCFWDEEEAAPSGTYQLLYAYPREKPRACPLSSQSMPHFGTRYVCQFPDQEEVRLFFPLHLWVKNVFLNQTRTQRVLFVDSVGLPAPPSIIKAMGGSQPGELQISWEEPAPEISDFLRYELRYGPRDPKNSTGPTVIQLIATETCCPALQRPHSASALDQSPCAQPTMPWQDGPKQTSPSREASALTAEGGSCLISGLQPGNSYWLQLRSEPDGISLGGSWGSWSLPVTVDLPGDAVALGLQCFTLDLKNVTCQWQQQDHASSQGFFYHSRARCCPRDRYPIWENCEEEEKTNPGLQTPQFSRCHFKSRNDSIIHILVEVTTAPGTVHSYLGSPFWIHQAVRLPTPNLHWREISSGHLELEWQHPSSWAAQETCYQLRYTGEGHQDWKVLEPPLGARGGTLELRPRSRYRLQLRARLNGPTYQGPWSSWSDPTRVETATETAW
modifications: The construct is described only in S1 Methods. The extracellular domain after the signal peptide is assumed as the SPR receptor; glycosylation is possible.
Usually Kd stands for the concentration at which binding is half-saturated. A high value points to lower affinity. As to B1, the Kd with buto_a3 was 10.6 ± 1.49 µM; in the test with buto_a3_t2, 0.88 ± 0.16 µM.

B2: Thrombopoietin (TPO), bacterially expressed (ligand)
chain: SPAPPACDLRVLSKLLRDSHVLHSRLSQCPEVHPLPTPVLLPAVDFSLGEWKTQMEETKAQDILGAVTLLLEGVMAARGQLGPTCLSSLLGQLSGQVRLLLGALQSLLGTQLPPQGRTTAHKDPNAIFLSFQHLLRGKVRFLMLVGGSTLCVRRAPPTTAVPS
modifications: expressed in E. coli, non-glycosylated; N-terminal His tag/thrombin site omitted / The construct is described only in S1 Methods. The extracellular domain after the signal peptide is assumed as the …
B2: in test [1], binding was characterised by a dissociation constant (Kd) of 4.09 ± 1.84 µM.
